Measured values published in article PMC11852163, “Development and Characterization of CD44-Targeted X-Aptamers with Enhanced Binding Affinity for Cancer Therapeutics”.

What was measured:
[1] = molecular target: CD44-HABD (UniProt P16070); assay: filter binding; details: monothioate backbone, Filter binding: 1 nM biotinylated XA, 20 mM Tris pH 8.0, 150 mM NaCl, 40 min, room temperature, cell binding at room temperature, 30-60 min
[2] = molecular target: CD44-HABD (UniProt P16070 20-178); assay: filter binding; Filter binding: 1 nM biotinylated XA, 20 mM Tris pH 8.0, 150 mM NaCl, 40 min, room temperature; cell binding at room temperature, 30-60 min; details: protein: recombinant; label: biotin
Sequence of CD44-HABD (UniProt P16070 20-178) (P16070 20-178): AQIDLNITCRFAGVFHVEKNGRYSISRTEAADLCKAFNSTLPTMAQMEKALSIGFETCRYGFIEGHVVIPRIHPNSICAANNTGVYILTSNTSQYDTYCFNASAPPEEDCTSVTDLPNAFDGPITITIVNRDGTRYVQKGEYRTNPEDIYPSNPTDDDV

Sequence of CD44-HABD (UniProt P16070) (P16070 20-178): as above

For “TTGGGGCCTGCAAGACGTCCATAGACACAG [XA4-NH2]”, the Kd ([1]; X = T18 as amino-dU) was 137 nM.

Work on “TTAAGATCTGTTAGGGAACCAAGACGACAG [XA1-ADDA]” yielded a Kd ([1]; X = T9, T11 as ADDA-conjugated amino-dU) of 78.3 nM.

“TTGGGGCCTGCAAGACGTCCATAGACACAG [XA4-ADDA]” was tested, and the Kd ([1]; X = T18 as ADDA-conjugated amino-dU) was 103 nM.

In the case of “TTAAGATCTGCAATGTAACCATAGACACAG [XA9-ADDA]”, the Kd ([1]; X = T14 as ADDA-conjugated amino-dU) is reported as 77.6 nM.

Work on “TTAAGATCTGCAATGTAACCATAGACACAG [XA9-NH2]” yielded a Kd ([1]; X = T14 as amino-dU) of 111 nM.

“TGCAGATACAGTAAACGTCCATAGACACAG [XA5-NH2]” gave a Kd ([1]; X = T7, T18 as amino-dU) of 137 nM.

“TTAAGATCTGTTAGGGAACCAAGACGACAG [XA1-NH2]” showed a Kd ([1]; X = T9, T11 as 5-(aminoethyl-3-acrylimido)-dU) of 55.5 nM.

Work on “TGCAGATACAGTAAACGTCCATAGACACAG [XA5-ADDA]” yielded a Kd ([1]; X = T7, T18 as ADDA-conjugated amino-dU) of 125 nM.

B1: XA2-NH2 (XNA)
DNA: TGCAGATCTGCAAGGGAACCAAGGACACTAC
modifications: NH2 form; no X in the printed sequence, X position unknown; monothioate backbone
With B1 the Kd [2] was 62.9 ± 10.3 nM.

B2: XA2-ADDA (XNA)
DNA: B1 DNA
modifications: ADDA form; no X in the printed sequence, X position unknown; monothioate backbone
With B2 the Kd [2] was 109 ± 15.4 nM.
